Test results: patent publication US10907134B2, “Mutated genes for the catalytic protein of oplophorus luciferase and use thereof” (JNC CORPORATION, priority 2013, dated 2021)

Assays:
[1] = Luminescence activity of ZZ-fused KAZ mutants in crude enzyme solutions; assay type: biochemical; settings: Table 4; ZZ-fused (pCold-ZZ-P-); 1 μL crude enzyme solution, 1 mM DTT; 1 μg coelenterazine
Method: To express the ZZ-fused KAZ mutants in E. coli, the recombinant plasmid prepared in EXAMPLE 6 was used. Crude enzyme solutions were prepared in the same manner as EXAMPLE 4 using the E. coli BL21 strain (Novagen, Madison, Wis.) as a host cell. The resultant crude enzyme solution, 5 μL, was subjected to SDS-PAGE analysis to confirm expression of the proteins (FIG. 2). In FIG. 2, M and 1 to 18 are the same as described in FIG. 1.
DTT was added to the crude enzyme solution obtained in EXAMPLE 7 at a final concentration of 1 mM and the mixture was allowed to stand in an ice water for more than 5 hours. A luminescence reaction was started by adding 1 μL of the crude enzyme solution to 100 μL of TE containing 1 μg of coelenterazine (manufactured by JNC Corp.). The luminescence activity was determined using a luminometer (manufactured by Atto Inc.: AB2200) for 60 seconds, and the maximum intensity of luminescence (Imax) was shown as relative luminescence activity.
To express the ZZ-fused KAZ mutants in E. coli, the recombinant plasmid constructed in EXAMPLE 16 and pCold-ZZ-P-V44I-KAZ, pCold-ZZ-P-A54I-KAZ, pCold-ZZ-P-Y138I-KAZ prepared in EXAMPLE 6 were used. Crude enzyme solutions were prepared in the same manner as EXAMPLE 7, using the E. coli BL21 strain (Novagen, Madison, Wis.) as a host cell. DTT was added to the crude enzyme solutions at a final concentration of 1 mM. The mixtures were allowed to stand over 5 hours on ice, and luminescence activities were then assayed. The luminescence activities were determined by the method described in EXAMPLE 8. Also, 5 μL of the resultant crude enzyme solutions were subjected to SDS-PAGE analysis to confirm protein expression (FIG. 4). In FIG. 4, M and 1 to 9 are as follows. M: molecular weight size markers; 1: ZZ-P-KAZ; 2: ZZ-P-KAZ-V44I; 3: ZZ-P-KAZ-A54I; 4: ZZ-P-KAZ-Y138I; 5: ZZ-P-KAZ-V44I-A54I; 6: ZZ-P-KAZ-V44I-Y138I; 7: ZZ-P-KAZ-A54I-Y138I; 8: ZZ-P-KAZ-V44I-A54I-Y138I; and 9: ZZ-P-dnKAZ.

CHO-K1 cells = test: Luminescence activity of KAZ mutants expressed in animal culture cells with signal peptide of Gaussia luciferase for secretion; assay type: cell-based, Chinese hamster; settings: Table 5, pcDNA3-GLsp- vectors, CHO-K1, 48 hours, 0.5 μg coelenterazine; for Relative Luminescence Activity (Imax) (%) Cell Extracts: 5 μL cell extracts; for Relative Luminescence Activity (Imax) (%) Culture Medium: 5 μL culture medium
Method: Chinese hamster ovary cell line CHO-K1 was cultured in Ham's F-12 medium (manufactured by Wako Pure Chemical Industries, Ltd.) supplemented with 10% (v/v) fetal bovine serum (manufactured by Biowest Inc.). The CHO-K1 cells were plated in a 6-well plate in 1×10^5 cells/well/2 mL medium (n=2) and cultured in an incubator at 37° C. in 5% (v/v) CO2. After 24 hours, the purified recombinant plasmid was transfected to CHO-K1 cells using a FuGene HD transfection kit (manufactured by Promega Corp.), which was provided for subsequent experiment. Specifically, 1 μg of the recombinant plasmid pGL4.13 [Luc2/sv40], 0.1 μg of the internal standard vector and 3 μL of FuGene HD were added to 100 μL of the medium, which was allowed to stand at room temperature for 15 minutes. Subsequently, 100 μL of the DNA-FuGene complex was added to the cells in the 6 wells. After incubation for 48 hours, the culture medium was collected. On the other hand, the KAZ mutants expressed in the cells were washed 3 times with 3 mL of 1×PBS, then suspended in 1 mL of 1×PBS and disrupted on ice by ultrasonication, which was used as enzyme solutions of the cell-extracts of KAZ mutants.
A luminescence reaction was started by adding 5 μL of the culture media and cell extracts obtained in EXAMPLE 10 to 100 μL of 30 mM Tris-HCl (pH 7.6)-10 mM EDTA (manufactured by Wako Pure Chemical Industries, Ltd.) containing 0.5 μg of coelenterazine (manufactured by INC Corp.). The luminescence activity was determined using a luminometer (manufactured by Atto Inc.: AB2200) for 60 seconds, and the maximum intensity of luminescence (Imax) was defined as a percentage.
Culture media of the KAZ mutants with two amino acid substitutions and KAZ mutants with three amino acid substitutions and the enzyme solutions of the cell-extracts of KAZ mutants were prepared in the same manner as EXAMPLE 10.
In the resultant enzyme solutions and the enzyme solutions of the cell-extracts of KAZ mutants, luminescence activities were determined in the same manner as EXAMPLE 11.

[2] = Luminescence activity of KAZ mutants (pCold II, E. coli) in supernatant and precipitate of crude enzyme solution; assay type: biochemical; settings: Table 3, pCold II, E. coli BL21, 0.5 μg coelenterazine, 60 seconds; for Relative Luminescence Activity (Imax) Precipitate: 5 μL precipitate; for Relative Luminescence Activity (Imax) Supernatant: 5 μL supernatant
Method: In order to express the KAZ mutants in E. coli, the recombinant plasmid prepared in EXAMPLE 3 was used. The E. coli BL21 strain (Novagen, Madison, Wis.) was used as a host cell. The BL21 strain carrying the recombinant plasmid was incubated in 5 mL of Luria-Bertani medium (hereinafter designated as LB medium) containing ampicillin (50 μg/mL) at 37° C. for 18 hours. This seed culture, 0.1 mL, was inoculated to 10 mL of LB medium and incubated for 3 hours, followed by cooling in an ice-water bath for 1 hour. IPTG was added to the culture medium at a final concentration of 1 mM, followed by incubation at 15° C. for further 20 hours. After completion of the incubation, 1 mL of the cultured medium was harvested by centrifugation at 10,000 rpm for 2 minutes. The thus collected E. coli cells were suspended in 0.5 mL of 30 mM Tris-HCl (pH 7.6)-10 mM EDTA (manufactured by Wako Pure Chemical Industries, Ltd.) (hereinafter designated as TE). The E. coli cells were disrupted by sonication for 3 seconds using a Branson Model 250 Sonifier (Danbury, Conn.) to give a crude enzyme solution. After 0.5 mL of the crude enzyme solution was further centrifuged at 10,000 rpm for 2 minutes to separate the supernatant from the precipitate, the precipitate was suspended in 0.5 mL of TE. Then 20 μL each of the supernatant and precipitate were analyzed by SDS-PAGE to confirm the presence or absence of soluble and insoluble proteins. The results are shown in FIG. 1, wherein M and 1 to 17 denote: M: molecular weight size markers; 1: KAZ; 2 KAZ-A4E; 3: KAZ-Q11R; 4: KAZ-Q18L; 5: KAZ-L27V; 6: KAZ-A33N; 7: KAZ-K43R; 8: KAZ-V44I; 9: KAZ-A54I; 10: KAZ-F68D; 11: KAZ-L72Q; 12: KAZ-M75K; 13: KAZ-I90V; 14: KAZ-P115E; 15: KAZ-Q124K; 16: KAZ-Y138I; 17: KAZ-N166R and 18: dnKAZ.
A luminescence reaction was started by the addition of 5 μL each of the supernatant and precipitate obtained in EXAMPLE 4 to 100 μL of TE containing 0.5 μg of coelenterazine (manufactured by JNC Corp.). The luminescence activity was measured for 60 seconds using a luminometer (manufactured by Atto Corp.: AB2200) and expressed in terms of relative luminescence activity (Imax).
To express the KAZ mutants with two amino acid substitutions and three amino acid substitutions in E. coli using a pCold II vector, the recombinant plasmid constructed in EXAMPLE 13 and pCold-V44I-KAZ, pCold-A54I-KAZ, pCold-Y138I-KAZ prepared in EXAMPLE 3 were used. The supernatant and precipitate of each crude enzyme solution were prepared in the same manner as EXAMPLE 4, using the E. coli BL21 starin (Novagen, Madison, Wis.) as a host cell. The supernatant and precipitate, 20 μL each, were subjected to SDS-PAGE analysis to confirm the presence or absence of soluble proteins and insoluble proteins. In FIG. 3, M and 1 to 9 are as follows. M: molecular weight markers; 1: dnKAZ; 2: KAZ; 3: KAZ-V44I-A54I; 4: KAZ-V44I-Y138I; 5: KAZ-A54I-Y138I; 6: KAZ-V44I-A54I-Y138I; 7: KAZ-V44I; 8: KAZ-A54I; and 9: KAZ-Y138I.
The luminescence activities of 5 μL each of the supernatant and precipitate obtained in EXAMPLE 14 were determined in the same manner as EXAMPLE 5. The luminescence activity was assayed with a luminometer (manufactured by Atto Inc.: AB2200) for 60 seconds, and the maximum intensity of luminescence (Imax) was shown as relative luminescence activity.

Row | Molecule | Relative Luminescence Activity (Imax) [1] | Relative Luminescence Activity (Imax) (%) Cell Extracts (CHO-K1 cells) | Relative Luminescence Activity (Imax) (%) Culture Medium (CHO-K1 cells) | Relative Luminescence Activity (Imax) Precipitate [2] | Relative Luminescence Activity (Imax) Supernatant [2]
1 | KAZ-Q11R: KAZ with single amino acid substitution Q11R (protein) FTLADFVGDWRQTAGYNQDQVLEQGGLSSLFQALGVSVTPIQKVVLSGENGLKADIHVIIPYEGLSGFQMGLIEMIFKVVYPVDDHHFKIILHYGTLVIDGVTPNMIDYFGRPYPGIAVFDGKQITVTGTLWNGNKIYDERLINPDGSLLFRVTINGVTGWRLCENILA | 1.8 | 0.1% | less than 0.01% | 0.3 | 2.0
2 | KAZ-K43R: KAZ with single amino acid substitution K43R (protein) FTLADFVGDWQQTAGYNQDQVLEQGGLSSLFQALGVSVTPIQRVVLSGENGLKADIHVIIPYEGLSGFQMGLIEMIFKVVYPVDDHHFKIILHYGTLVIDGVTPNMIDYFGRPYPGIAVFDGKQITVTGTLWNGNKIYDERLINPDGSLLFRVTINGVTGWRLCENILA | 0.6 | 0.1% | less than 0.01% | 0.2 | 1.8
3 | KAZ-Q18L: KAZ with glutamine at position 18 substituted by leucine (protein, listed as Oplophorus gracilirostris) FTLADFVGDWQQTAGYNLDQVLEQGGLSSLFQALGVSVTPIQKVVLSGENGLKADIHVIIPYEGLSGFQMGLIEMIFKVVYPVDDHHFKIILHYGTLVIDGVTPNMIDYFGRPYPGIAVFDGKQITVTGTLWNGNKIYDERLINPDGSLLFRVTINGVTGWRLCENILA | 0.3 | 0.02% | less than 0.01% | 0.2 | 1.0
4 | KAZ-A33N: KAZ with single amino acid substitution A33N (protein) FTLADFVGDWQQTAGYNQDQVLEQGGLSSLFQNLGVSVTPIQKVVLSGENGLKADIHVIIPYEGLSGFQMGLIEMIFKVVYPVDDHHFKIILHYGTLVIDGVTPNMIDYFGRPYPGIAVFDGKQITVTGTLWNGNKIYDERLINPDGSLLFRVTINGVTGWRLCENILA | 1.0 | 0.1% | less than 0.01% | 0.4 | 1.0

Now from value to molecule, other results behind:

Row | Relative Luminescence Activity (Imax) [1] | Molecule | Relative Luminescence Activity (Imax) (%) Cell Extracts (CHO-K1 cells) | Relative Luminescence Activity (Imax) (%) Culture Medium (CHO-K1 cells) | Relative Luminescence Activity (Imax) Precipitate [2] | Relative Luminescence Activity (Imax) Supernatant [2]
5 | 0.1 | KAZ-L27V: KAZ with single amino acid substitution L27V (protein) FTLADFVGDWQQTAGYNQDQVLEQGGVSSLFQALGVSVTPIQKVVLSGENGLKADIHVIIPYEGLSGFQMGLIEMIFKVVYPVDDHHFKIILHYGTLVIDGVTPNMIDYFGRPYPGIAVFDGKQITVTGTLWNGNKIYDERLINPDGSLLFRVTINGVTGWRLCENILA | 0.02% | less than 0.01% | 0.1 | 0.1
6 | 2.7 | KAZ-F68D: KAZ with single amino acid substitution F68D (protein) FTLADFVGDWQQTAGYNQDQVLEQGGLSSLFQALGVSVTPIQKVVLSGENGLKADIHVIIPYEGLSGDQMGLIEMIFKVVYPVDDHHFKIILHYGTLVIDGVTPNMIDYFGRPYPGIAVFDGKQITVTGTLWNGNKIYDERLINPDGSLLFRVTINGVTGWRLCENILA | 0.3% | less than 0.01% | 0.2 | 5.4
